One block for each molecule: values may come before it.
Legend:
[1] = biological target: cynomolgus monkey BTLA on cells (stably transfected 293c18 clone 1G5; cynomolgus peripheral blood T and B cells) (cynomolgus monkey); assay: flow cytometry dot plot, CD3 (PerCP Cy5.5) against BTLA (APC), lysed cynomolgus monkey whole blood, antibody at 33 nM
[2] = biological target: human BTLA on cells (stably transfected 293c18 cells; human peripheral blood T and B cells) (human) (UniProt Q7Z6A9); assay: flow cytometry (MFI) on gated CD4+ T cells of human PBMC, APC-labelled antibody [left panel (Naive CD4+ T cells]
[3] = biological target: human BTLA on cells (stably transfected 293c18 cells; human peripheral blood T and B cells) (human) (UniProt Q7Z6A9); assay: flow cytometry (MFI) on gated CD8+ T cells of human PBMC, APC-labelled antibody [middle panel (Naive CD8+ T cells]
[4] = biological target: T1, purified recombinant BTLA-ECD (Example 19)
T1 sequence (Q7Z6A9 31-157, species assumed, looked up): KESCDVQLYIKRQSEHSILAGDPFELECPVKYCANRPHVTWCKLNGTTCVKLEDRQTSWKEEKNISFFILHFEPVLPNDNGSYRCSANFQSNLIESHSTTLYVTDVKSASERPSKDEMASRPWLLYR

[5] = biological target: T2, recombinant human BTLA monomer, hBTLA amino acids 31-155 followed by a 6-his tag (human, UniProt Q7Z6A9 31-155); assay: hydrogen-deuterium exchange with recombinant human BTLA monomer
T2 construct: Antigen of the hydrogen-deuterium exchange experiments
T2 sequence: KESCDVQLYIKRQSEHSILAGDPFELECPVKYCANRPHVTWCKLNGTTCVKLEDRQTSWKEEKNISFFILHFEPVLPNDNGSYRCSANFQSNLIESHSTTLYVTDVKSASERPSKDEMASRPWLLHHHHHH
Experimental: Hydrogen-deuterium exchange mapping of the peptides on BTLA bound by the 6G3 and 10D8 antibodies disclosed herein was performed using recombinant human BTLA monomer. […] FIGS. 7A, 7B, and 7C show a ribbon model of the crystal structure of human BTLA extracellular domain (black) in complex with a space-filling model of the crystal structure of human HVEM extracellular binding domain (light gray) rendered in PyMOL from Protein Data Bank structure (Compaan et al., J. Biol Chem 280: 39553-39561 (2005)). FIG. 7A summarizes a hydrogen-deuterium exchange experiment using the 6G3 antibody (APE12839.05 (H Chain SEQ ID NO: 144, L Chain SEQ ID NO: 174)), FIG. 7B summarizes a hydrogen-deuterium exchange experiment using the 10D8 antibody (APE11482.06), and FIG. 7C summarizes a hydrogen-deuterium exchange experiment using a reference BTLA antagonist antibody (APE10693.17). For each experiment, the BTLA/antibody mixture or BTLA alone was deuterium labeled for 4, 10, or 60 minutes in order to see the exchange kinetics. After incubation, the BTLA protein was subjected to rapid enzymatic proteolysis at acidic pH and the incorporation of deuterium into resulting peptides quantified by liquid chromatography-mass spectrometry.

[6] = biological target: T3, cynomolgus monkey BTLA ECD-his (monomeric cynomolgus monkey BTLA-his) (cynomolgus monkey, UniProt A0A2K5W7M7 31-157); assay: SPR, Biacore T200, antibody captured on anti-human IgG, monomeric cynomolgus monkey BTLA-his as analyte, 25 °C, 1:1 model; 6G3 IgG1 (APE10585.04) captured on the chip; cynomolgus BTLA-his analyte
T3 construct: extracellular domain; also called cynomolgus monkey BTLA extracellular domain
T3 sequence: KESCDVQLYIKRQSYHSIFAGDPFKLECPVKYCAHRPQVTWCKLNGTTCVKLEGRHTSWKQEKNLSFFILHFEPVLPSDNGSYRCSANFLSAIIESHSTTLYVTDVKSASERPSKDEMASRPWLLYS
Experimental: (§1) Surface plasmon resonance (SPR) analyses were carried out using a Biacore T200 (GE Healthcare Life Sciences). Kinetic constants were determined using a 1:1 binding model in the Biacore T200 Evaluation Software to calculate on- and off-rates (kₐ and kd, respectively), and dissociation constants as a measure of overall affinity (KD). Anti-human IgG (GE Healthcare Life Sciences) was immobilized on a CMS chip using EDC-activated amine coupling chemistry (420 seconds contact at a flow rate of 10 μl/min). Antibodies (APE10585.04 6G3 IgG1 and APE10840.05 6G3 IgG4), each at 0.5 μg/m1) were captured in a 60 second contact with the flow cell using a flow rate of 10 μl/min. Monomeric human BTLA-his or cynomolgus monkey BTLA-his at 60 nM, 20 nM, 6.7 nM and 2.2 nM concentrations was flowed over captured antibody (480 seconds association, 1800 seconds dissociation). Runs were at 25° C. and used buffer containing 10 mM HEPES, pH 7.6, 150 mM NaCl, 3 mM EDTA, 0.05% polysorbate 20 (HBS-EP+, pH 7.6; Teknova) for the mobile phase and all dilutions. At the end of each cycle, bound antigen was removed by regeneration with two successive exposures (60 seconds and 90 seconds) to 3 M MgCl2 (30 μl/min). Sensorgrams and binding constants corresponding to the experiment are shown in FIG. 1 (human BTLA) and FIG. 1 (cynomolgus monkey BTLA). […]

[7] = biological target: T3, cynomolgus monkey BTLA ECD-his …; assay: SPR (Biacore T200), antibody captured on anti-human IgG chip, monomeric BTLA-his flowed at 60, 20, 6.7 and 2.2 nM, 1:1 binding model, 25 C [lower left panel (Cyno BTLA]
Experimental: (§2) Surface plasmon resonance (SPR) analyses were carried out using a Biacore T200 (GE Healthcare Life Sciences). Kinetic constants were determined using a 1:1 binding model in the Biacore T200 Evaluation Software to calculate on- and off-rates (kₐ and kd, respectively), and dissociation constants as a measure of overall affinity (KD). Anti-human IgG (GE Healthcare Life Sciences) was immobilized on a CMS chip using EDC-activated amine coupling chemistry (420 seconds contact at a flow rate of 10 μl/min). Antibodies (APE10585.04 6G3 IgG1 and APE10840.05 6G3 IgG4), each at 0.5 μg/m1) were captured in a 60 second contact with the flow cell using a flow rate of 10 μl/min. Monomeric human BTLA-his or cynomolgus monkey BTLA-his at 60 nM, 20 nM, 6.7 nM and 2.2 nM concentrations was flowed over captured antibody (480 seconds association, 1800 seconds dissociation). Runs were at 25° C. and used buffer containing 10 mM HEPES, pH 7.6, 150 mM NaCl, 3 mM EDTA, 0.05% polysorbate 20 (HBS-EP+, pH 7.6; Teknova) for the mobile phase and all dilutions. At the end of each cycle, bound antigen was removed by regeneration with two successive exposures (60 seconds and 90 seconds) to 3 M MgCl2 (30 μl/min). Sensorgrams and binding constants corresponding to the experiment are shown in FIG. 1 (human BTLA) and FIG. 1 (cynomolgus monkey BTLA). Antibody capture levels in resonance units (RU) are listed at the right side of each panel.

[8] = biological target: T4, human BTLA ECD-his (monomeric human BTLA-his) (human, UniProt Q7Z6A9 31-157); assay: SPR, Biacore T200, antibody captured on anti-human IgG, monomeric human BTLA-his as analyte, 25 °C, 1:1 model; 6G3 IgG1 (APE10585.04) captured on the chip; human BTLA-his analyte
T4 construct: extracellular domain; also called human BTLA extracellular domain
T4 sequence (looked up): T1 sequence (Q7Z6A9 31-157, species assumed, looked up)
Experimental: as §1

[9] = biological target: T4, human BTLA ECD-his (monomeric human …); assay: SPR (Biacore T200), antibody captured on anti-human IgG chip, monomeric BTLA-his flowed at 60, 20, 6.7 and 2.2 nM, 1:1 binding model, 25 C [upper left panel (Hu BTLA]
Experimental: as §2

Q8-2 (percent CD3+ BTLA+ cells) [1]: 35.8%
Q8-4 (percent CD3- BTLA+ cells) [1]: 28%
Total BTLA (percent of gated cells BTLA-positive) [1]: 63.9%
Molecule: APC-Mouse Anti-Human CD272 (BTLA) reference antibody, clone J168-540 (BD Biosciences)

EC50 (read off the curve) [2]: 2 nM
EC50 (read off the curve) [3]: 3 nM
Molecule: reference anti-BTLA antibody MIH26 (APC-labeled, BioLegend)

B1: purified recombinant Proteinase 3 (PR3) (protein)
chain: IVGGHEAQPHSRPYMASLQMRGNPGSHFCGGTLIHPSFVLTAAHCLRDIPQRLVNVVLGAHNVRTQEPTQQHFSVAQVFLNNYDAENKLNDVLLIQLSSPANLSASVATVQLPQQDQPVPHGTQCLAMGWGRVGAHDPPAQVLQELNVTVVTFFCRPHNICTFVPRRKAGICFGDSGGPLICDGIIQGIDSFVIWGCATRLFPDFFTRVALYVDWIRSTLR
proteolytic cleavage after co-incubation up to 60 minutes (gel lanes) [4]: soluble BLTA-ECD was cleaved into multiple smaller fragments

binding result [5]: binds
B2: 10D8 antibody (APE11482.06) (antibody, V domains shown)
VH: QVQLVQSGAEVKKPGASVKVSCKASGYTLTDYTIHWVRQAPGQRLEWMGWIYPGSGNTKYNDEFKVRVTITRDTSASTAYMELSSLRSEDTAVYYCARRNYYAMEYWGQGTTVTVSS
VL: DIQMTQSPSSLSASVGDRVTITCKASQNVFTNVAWFQQKPGKAPKPLIYSASYRYSGVPSRFSGSGSGTDFTLTISSLQPEDFATYYCQQYSTYPYTFGQGTKLEIKR

Kd [6]: ~11 nM
Kd [7]: 10.8 nM
koff [7]: 0.00295 s⁻¹
kon [7]: 272000 M⁻¹ s⁻¹
Kd [8]: ~5 nM
Kd [9]: 3.56 nM
koff [9]: 0.000245 s⁻¹
kon [9]: 68900 M⁻¹ s⁻¹
B3: 6G3 IgG1 anti-BTLA antibody (APE10585.04) (antibody, V domains shown)
VH: QVQLVQSGAEVKKPGSSVKVSCKASGYVFSTSWMNWVRQAPGQGLEWMGRIYPGDADTNYVGKFKGRVTITADKSTTTAYMELSSLRSEDTAVYFCAKSGTFNFGNYRWYFDVWGKGTTVTVSS
VL: AIQLTQSPSSLSASVGDRVTITCRVSENIYSHLAWYQQKPGKAPKLLIYAATNLALGVPSRFSGSGSGTDYTLTISSLQPEDFATYYCQLFWGPPLTFGGGTKVEIKR
notes: Same variable regions as 6G3 IgG4, in IgG1 format; also called APE10585.x; APE10585.04 6G3 IgG1
